One may read the IC50 as the concentration needed to halve the response being measured.

The labels stand for the following.
T1: recombinant human IL-12 (hrIL-12), produced at Centocor (human, UniProt P29459 23-219; P29460 23-328)
T1 construct: also called IL-12 CNTO
T1 sequence (looked up) 1: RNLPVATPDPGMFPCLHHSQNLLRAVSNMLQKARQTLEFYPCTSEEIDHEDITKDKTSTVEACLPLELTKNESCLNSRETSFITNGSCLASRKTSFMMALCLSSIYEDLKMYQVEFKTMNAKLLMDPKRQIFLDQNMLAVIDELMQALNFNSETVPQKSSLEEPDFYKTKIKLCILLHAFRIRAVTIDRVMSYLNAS
T1 sequence (looked up) 2: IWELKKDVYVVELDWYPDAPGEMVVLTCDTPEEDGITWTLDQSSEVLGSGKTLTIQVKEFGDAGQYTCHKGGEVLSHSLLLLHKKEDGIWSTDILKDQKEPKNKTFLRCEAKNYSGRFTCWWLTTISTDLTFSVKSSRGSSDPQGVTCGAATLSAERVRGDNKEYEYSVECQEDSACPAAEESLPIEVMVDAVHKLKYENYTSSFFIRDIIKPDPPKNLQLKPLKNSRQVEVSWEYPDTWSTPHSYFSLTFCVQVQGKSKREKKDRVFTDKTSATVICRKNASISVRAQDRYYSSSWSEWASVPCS

T2: p40 subunit of hrIL-12 (hrp40 monomer) (human, UniProt P29460 23-328)
T2 construct: also called p40 R&D
T2 sequence (looked up): T1 sequence (looked up) 2

T3: mIL-12 (Disulfide-linked, glycosylated heterodimer; the letters do not carry this.)
T3 construct: also called murine IL-12; copies: 1 + 1
T3 alpha: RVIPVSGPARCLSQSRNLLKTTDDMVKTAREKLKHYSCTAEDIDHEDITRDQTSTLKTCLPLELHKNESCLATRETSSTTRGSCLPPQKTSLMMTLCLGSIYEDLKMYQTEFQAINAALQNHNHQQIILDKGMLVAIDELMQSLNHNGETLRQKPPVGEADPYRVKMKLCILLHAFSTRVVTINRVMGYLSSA
T3 beta: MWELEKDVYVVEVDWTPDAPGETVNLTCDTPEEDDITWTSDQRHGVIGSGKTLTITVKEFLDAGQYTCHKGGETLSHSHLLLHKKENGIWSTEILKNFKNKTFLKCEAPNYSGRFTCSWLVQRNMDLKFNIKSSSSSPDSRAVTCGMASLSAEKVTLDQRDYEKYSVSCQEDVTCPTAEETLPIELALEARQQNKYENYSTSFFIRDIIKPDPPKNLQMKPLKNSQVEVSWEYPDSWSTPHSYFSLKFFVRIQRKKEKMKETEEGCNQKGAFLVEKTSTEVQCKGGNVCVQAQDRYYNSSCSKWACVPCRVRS

T4: murine IL-23 (murine, UniProt Q9EQ14 22-196; P43432 23-335)
T4 sequence (looked up) 1: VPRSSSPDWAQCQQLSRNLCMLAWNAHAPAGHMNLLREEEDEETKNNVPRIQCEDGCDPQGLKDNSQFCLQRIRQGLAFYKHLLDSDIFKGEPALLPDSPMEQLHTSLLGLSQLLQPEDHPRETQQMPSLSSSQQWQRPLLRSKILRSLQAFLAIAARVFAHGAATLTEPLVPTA
T4 sequence (looked up) 2: T3 beta

T5: murine p40 (murine, UniProt P43432 23-335)
T5 sequence (looked up): T3 beta

B1: MOR04190 mAb (antibody, human IgG1, V domains shown)
VH: QVELVQSGAEVKKPGSSVKVSCKASGGTFSSNYISWVRQAPGQGLEWMGGIIPIFGHANYAQKFQGRVTITADESTSTAYMELSSLRSEDTAVYYCARSKKGMYGGWTYPLMMFDLWGQGTLVTVSS
VL: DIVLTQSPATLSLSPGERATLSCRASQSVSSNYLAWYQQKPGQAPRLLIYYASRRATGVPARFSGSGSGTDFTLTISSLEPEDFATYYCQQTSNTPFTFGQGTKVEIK
notes: human IgG1/kappa; also called 4190 (κ); MOR0190
B2: MOR05049 mAb (antibody, human IgG1, V domains shown)
VH: QVELVESGGGLVQPGGSLRLSCAASGFTFSSFGMSWVRQAPGKGLEWVSGIEHKYLSYTTHYAASVKGRFTISRDNSKNTLYLQMNSLRAEDTAVYYCARYWGTPYLMQFDNWGQGTLVTVSS
VL: DIALTQPASVSGSPGQSITISCTGTSSDVGGYNSVSWYQQHPGKAPKLMIYSVSSRPSGVSNRFSGSKSGNTASLTISGLQAEDEADYYCSSYDTNKPLVVFGGGTKLTVL
notes: human IgG1/lambda
B3: human IL-23R-Fc fusion protein (Fc fusion, UniProt Q5VWK5 24-355, looked up, not shown: a dimerising Fc or GST)
chain: GITNINCSGHIWVEPATIFKMGMNISIYCQAAIKNCQPRKLHFYKNGIKERFQITRINKTTARLWYKNFLEPHASMYCTAECPKHFQETLICGKDISSGYPPDIPDEVTCVIYEYSGNMTCTWNAGKLTYIDTKYVVHVKSLETEEEQQYLTSSYINISTDSLQGGKKYLVWVQAANALGMEESKQLQIHLDDIVIPSAAVISRAETINATVPKTIIYWDSQTTIEKVSCEMRYKATTNQTWNVKEFDTNFTYVQQSEFYLEPNIKYVFQVRCQETGKRYWQPWSSLFFHKTPETVPQVTSKAFQHDTWNSGLTVASISTGHLTSDNRGDIG
notes: extracellular domain; also called hIL-23R; soluble IL-23R
B4: recombinant human IL-23 (hrIL-23), produced at Centocor (ligand)
chain 1: RAVPGGSSPAWTQCQQLSQKLCTLAWSAHPLVGHMDLREEGDEETTNDVPHIQCGDGCDPQGLRDNSQFCLQRIHQGLIFYEKLLGSDIFTGEPSLLPDSPVAQLHASLLGLSQLLQPEGHHWETQQIPSLSPSQPWQRLLLRFKILRSLQAFVAVAARVFAHGAATLSP
chain 2: T1 sequence (looked up) 2
notes: p19-p40 heterodimer; also called rhIL-23; huIL-23

In experiment [1] the target is B4. As to the kind of experiment: cell-based or functional assay.
Experiment [2] concerns the target B4. As to the kind of experiment: biotinylated hrIL-23 on immobilized IL-23R-Fc. The procedure: (§1) In this experiment, a human IL-23R-Fc fusion protein was immobilized on a plate. This fusion protein consists of the extracellular domain of human IL-23 receptor fused to a human Fc segment. Biotinylated hrIL-23 was added to the plate either alone or after preincubation with individual IL-23p19 mAbs. Soluble IL-23R (IL-23R-Fc) was used as a positive control. IL-23 binding was detected with HRP-conjugated streptavidin. […] There was no inhibition by B21M, a mAb with unrelated specificity. […] IL-23 binding was inhibited by the p40 neutralizing mAb CNTO 1275 (same as mAb 12A), as expected. […] CNTO 1275 again served as a positive control.

For experiment [3], the target named is T1, recombinant human IL-12 (hrIL-12), …. Briefly: cytokine capture ELISA: mAbs coated onto plates, cytokines at 100 ng/ml, binding detected with mAb12B-biotin. The method, then: (§2) Purified mouse anti-hIL-23 mAbs were evaluated in cytokine capture ELISA to determine their antigen subunit specificity. Briefly, IL-23 mAbs were coated onto plates and incubated with 100 ng/ml) hrIL-23, hrIL-12, and hrp40, respectively. Following incubation with biotinylated anti-p40 mAb, the binding was detected using HRP—conjugated streptavidin. An anti-p40 mAb and an anti-IL-12 mAb (20C2, Catalog No. 555065, BD Pharmingen, San Diego, Calif.) with known specificity were used as controls.
In general terms: In an ELISA, binding on a coated surface is turned into a signal by an enzyme label.

The target of experiment [4] is T2, p40 subunit of hrIL-12 (hrp40 monomer). Described as above. The method, then:
as §2

The next experiment concerns the target T3, mIL-12. As to the kind of experiment: cytokine capture ELISA: mAbs coated onto plates, cytokines at 100 ng/ml; murine p40 containing cytokine detected with C17.8-biotin.
The target of a further experiment is T4, murine IL-23. Described as above.
A further experiment has as its target T5, murine p40. Briefly: cytokine capture ELISA: mAbs coated onto plates, cytokines at 100 ng/ml; murine p40 containing cytokine detected with C17.8-biotin; target printed as m(p40)2.
The target in experiment [5] is B4. As to the kind of experiment: blocking ELISA: 20 ng/ml IL-23-bt. with titrated mAb, binding to plate-immobilized IL-23R-Fc is blocked.
Experiment [6] deals with B4. As to the kind of experiment: hrIL-23/hIL-23R competition assay, soluble receptor as reference.
Experiment [7] has as its target B4. As to the kind of experiment: blocking ELISA (BRBA): biotinylated IL-23 with titrated soluble IL-23R-Fc, binding to plate-immobilized IL-23R-Fc. The method, then:
as §1

The target of experiment [8] is T6, IL-23R and IL-12Rβ1 naturally expressed on TALL-104 cells (human, UniProt Q5VWK5 24-629; P42701 24-662).
T6 construct: whole, on cells
Briefly: flow cytometry on TALL-104 cells. On the technique in general: A flow cytometer gives signals particle by particle.

As to B1, the “IC50, inhibition of IL-17 production” value in experiment [1] is 0.218 µg/mL. Also, the “fold weaker potency than soluble IL-23R-Fc” value in experiment [2] is approximately 3 fold. Moreover, the binding result (in [3]; in experiment [4]; in the experiment with mIL-12; in the experiment with murine IL-23; in the experiment with murine p40) was “no binding (tested: 100 ng/ml)” in each case.

On to B2, for which the “IC50, inhibition of IL-17 production” value in [1] amounted to 0.0162 µg/mL. Besides, the “IC50 (read off the curve)” value in experiment [5] was approximately 0.1 µg/mL.

For the molecule B3, the IC50 in [6] turned out to be 1.8 nM. Further, in [7], the “IC50 (read off the curve)” value was approximately 0.05 µg/mL.

For B4, the binding result in experiment [8] was “binds”.
